According to patent US12534531 (MacroGenics, dated 2026):
Changes are numbered by the printed parent chain. Values belong to the binder of their own block, whether it stands above or below them.

What was measured:
[1] = target: T1, human PD-1 expressed on the surface of cells (NSO cells expressing human PD-1; MNFAT-luc2/PD-1 Jurkat cells) (human, UniProt Q15116 21-288); test: FACS saturation binding on NSO cells expressing human PD-1, goat anti-human-APC, MFI, 1:4 dilutions
T1 construct: also called cell surface PD-1; PDCD1 transfected NSO cells expressing PD-1

[2] = target: T1, human PD-1 expressed on the surface of …; test: FACS blocking on NSO cells expressing human PD-1, 1:4 dilutions, MFI; blocked ligand: biotinylated sPD-L2, streptavidin-PE
[3] = target: T2, soluble cynomolgus monkey PD-1 (scyno PD-1 hFc) cleaved to remove Fc portion (cynomolgus monkey, UniProt B0LAJ3 25-170); test: Biacore, mAb captured on F(ab)2 goat anti-human Fc, analyte scyno PD-1 hFc cleaved of Fc
[4] = target: T1, human PD-1 expressed on the surface of …; test: FACS blocking on NSO cells expressing human PD-1, 1:4 dilutions, MFI; blocked ligand: biotinylated sPD-L1, streptavidin-PE
[5] = target: T3, soluble human PD-1 (the extracellular domain of human PD-1 fused to a His tag) (human, UniProt Q15116 25-170); test: Biacore, mAb captured on F(ab)2 goat anti-human Fc, analyte shPD-1 His
T3 construct: also called shPD-1 His; shPD-1-His; not shown: His tag

[6] = target: T4, soluble cynomolgus monkey PD-1 (the extracellular domain of cynomolgus monkey PD-1 fused to a human Fc Region) (cynomolgus monkey, UniProt B0LAJ3 25-170); test: ELISA: scyno-PD-1-TEV-Fc coated at 0.5 ug/ml, goat anti-mouse (H+L)-HRP, RLU
T4 construct: also called scyno-PD1 Fc; scynoPD-1-hFc; not shown: Human Fc Region and any linker or cleavage site between the extracellular domain and the Fc

[7] = target: T3, soluble human PD-1 (the extracellular …); test: ELISA: shPD-1 His coated at 1 ug/ml, goat anti-mouse (H+L)-HRP, RLU
[8] = target: T3, soluble human PD-1 (the extracellular …); test: ELISA: shPD-1 His coated at 0.5 ug/ml, goat anti-mouse (H+L)-HRP, RLU
[9] = target: T1, human PD-1 expressed on the surface of …; test: FACS: inhibition of sPD-L2 binding to PD-1 on NSO cells; SM; SD 0.2563
[10] = target: T1, human PD-1 expressed on the surface of …; test: FACS: inhibition of sPD-L1 binding to PD-1 on NSO cells; SM; SD 0.1668
[11] = target: T5, PD-1 on the surface of CD4+ and CD8+ T cells of cynomolgus monkeys (cynomolgus monkey, UniProt B0LAJ3 25-288); test: flow cytometry competition with labeled hPD-1 mAb 7 (1.2) IgG4 (P) on blood of cynomolgus monkeys given 10 mg/kg
T5 construct: In vivo occupancy read by flow cytometry; also called PD-1+/CD4+ and PD-1+/CD8+ cells

[12] = target: T1, human PD-1 expressed on the surface of …; test: FACS saturation binding to NSO cells expressing PD-1; SM; SD 0.8112
[13] = target: T3, soluble human PD-1 (the extracellular …); test: Biacore, mAb captured on Protein A, analyte shPD-1 His
[14] = target: T2, soluble cynomolgus monkey PD-1 (scyno …); test: Biacore, mAb captured on Protein A, analyte scyno PD-1 hFc cleaved of Fc
[15] = target: T1, human PD-1 expressed on the surface of …; test: FACS: biotinylated sPD-L2 on NSO cells expressing human PD-1, streptavidin-PE, MFI
[16] = target: T4, soluble cynomolgus monkey PD-1 (the …); test: ELISA: scyno-PD-1-TEV-hFc coated at 1 ug/ml, goat anti-mouse (H+L) detection, RLU

B1: hPD-1 mAb 9 (1.1) IgG4 (P) (antibody)
heavy: not shown
light: DIQMTQSPSSLSASVGDRVTITCRASENIYSYLAWYQQKPGKAPKLLIYNAKTLAAGVPSRFSGSGSGTDFTLTISSLQPEDFATYYCQHHYAVPWTFGQGTKLEIKRTVAAPSVFIFPPSDEQLKSGTASVVCLLNNFYPREAKVQWKVDNALQSGNSQESVTEQDSKDSTYSLSSTLTLSKADYEKHKVYACEVTHQGLSSPVTKSFNRGEC
notes: also called hPD-1 mAb 9 IgG4 (P)
EC50 (read off the curve) [1]: ~0.5 µg/mL
IC50 (read off the curve) [2]: ~0.1 ug/test
Kd [3]: 15.1 nM
IC50 (read off the curve) [4]: ~0.03 ug/test
Kd [5]: 9.5 nM

B6: PD-1 mAb 5 (antibody, V domains shown)
VH: QVQLQQPGVELVRPGASVKLSCKASGYSFTAYWMNWMKQRPGQGLEWIGVIHPSDSETWLNQKFKDKATLTVDKSSSTAYMQLISPTSEDSAVYYCAREHYGSSPFAYWGQGTLVTVSA
VL: not shown
notes: Murine monoclonal antibody
binding result [6]: binds
EC50 (read off the curve) [8]: ~0.3 nM

B9: PD-1 mAb 2 (antibody, V domains shown)
VH: DVQLVESGGGLVQPGGSRKLSCAASGFVFSSFGMHWVRQAPEKGLEWVAYISSGSMSISYADTVKGRFTVTRDNAKNTLFLQMTSLRSEDTAIYYCASLSDYFDYWGQGTTLTVSS
VL: DVVMSQTPLSLPVSLGDQASISCRSSQSLVHSTGNTYLHWYLQKPGQSPKLLIYRVSNRFSGVPDRFSGSGSGTDFTLKISRVEAEDLGVFFCSQTTHVPWTFGGGTKLEIK
notes: Murine monoclonal antibody
Kd [13]: 10.2 nM
EC50 (read off the curve) [6]: ~0.3 nM
EC50 (read off the curve) [7]: ~0.3 nM
Kd [14]: 14.3 nM

B10: PD-1 mAb 4 (antibody, V domains shown)
VH: B9 VH with S100T
VL: B9 VL with L38F, F91Y
notes: Murine monoclonal antibody
EC50 (read off the curve) [6]: ~0.3 nM
EC50 (read off the curve) [7]: ~0.3 nM

B12: PD-1 mAb A IgG4 (P) (antibody, V domains shown)
VH: QVQLVESGGGVVQPGRSLRLDCKASGITFSNSGMHWVRQAPGKGLEWVAVIWYDGSKRYYADSVKGRFTISRDNSKNTLFLQMNSLRAEDTAVYYCATNDDYWGQGTLVTVSS
VL: EIVLTQSPATLSLSPGERATLSCRASQSVSSYLAWYQQKPGQAPRLLIYDASNRATGIPARFSGSGSGTDFTLTISSLEPEDFAVYYCQQSSNWPRTFGQGTKVEIK
Kd [3]: 6 nM
PD-1 binding on CD4+ and CD8+ T cells (% bound, in vivo) [11]: ≥ 80%

Continued, values first:

EC50 (read off the curve) [1]: ~0.2 µg/mL
IC50 (read off the curve) [2]: ~0.1 ug/test
Kd [3]: 9.3 nM
IC50 (read off the curve) [4]: ~0.06 ug/test
Kd [5]: 10.9 nM
B2: hPD-1 mAb 9 (1.1) IgG1 (AA) (antibody)
heavy: not shown
light: B1 light
notes: also called hPD-1 mAb 9 IgG1 (AA)

EC50 (read off the curve) [6]: ~0.3 nM
EC50 (read off the curve) [7]: ~0.3 nM
B3: PD-1 mAb 1 (antibody, V domains shown)
VH: DVQLQESGPGRVKPSQSLSLTCTVTGFSITNDYAWNWIRQFPGNKLEWMGHITYSGSTSYNPSLKSRISITRDTSKNHFFLQLSSVTPEDTATYYCARDYGSGYPYTLDYWGQGTSVTVSS
VL: QIVLTQSPALMSASPGEKVTMTCSATSIVSYVYWYQQKPGSSPQPWIYLTSNLASGVPARFSGSGSGTSYSLTISSMEAEDAATYYCQQWSDNPYTFGGGTKLEIK
notes: Murine monoclonal antibody

binding result [6]: binds
EC50 (read off the curve) [8]: ~0.3 nM
B4: PD-1 mAb 6 (antibody, V domains shown)
VH: EVKLVESGGGLVNPGGSLKLSCAASGFTFSSYGMSWVRQTPEKRLEWVATISGGGSDTYYPDSVKGRFTISRDNAKNNLYLQMSSLRSEDTALYYCARQKATTWFAYWGQGTLVTVST
VL: not shown
notes: Murine monoclonal antibody

EC50 (read off the curve) [1]: ~0.1 µg/mL
IC50 (read off the curve) [2]: ~0.02 ug/test
IC50 [9]: 1040 nM
Kd [3]: 4.6 nM
IC50 [10]: 519 nM
IC50 (read off the curve) [4]: ~0.01 ug/test
Kd [5]: 1.5 nM
PD-1 binding on CD4+ and CD8+ T cells (% bound, in vivo) [11]: ≥ 80%
EC50 [12]: 1210 nM
B5: hPD-1 mAb 7 (1.2) IgG4 (P) (antibody)
heavy: not shown
light: EIVLTQSPATLSLSPGERATLSCRASESVDNYGMSFMNWFQQKPGQPPKLLIHAASNQGSGVPSRFSGSGSGTDFTLTISSLEPEDFAVYFCQQSKEVPYTFGGGTKVEIKRTVAAPSVFIFPPSDEQLKSGTASVVCLLNNFYPREAKVQWKVDNALQSGNSQESVTEQDSKDSTYSLSSTLTLSKADYEKHKVYACEVTHQGLSSPVTKSFNRGEC
notes: also called MGD012

Kd [13]: 1.3 nM
EC50 (read off the curve) [6]: ~0.3 nM
EC50 (read off the curve) [8]: ~0.2 nM
Kd [14]: 3.5 nM
B7: PD-1 mAb 7 (antibody, V domains shown)
VH: B6 VH with V9A, A31S, M37V, N61D, S77T, S103T, A119S
VL: not shown
notes: Murine monoclonal antibody

binding result [15]: binds
B8: biotinylated-soluble human PD-L2-muIgFc fusion protein (Ancell Cat #573-030) (Fc fusion, UniProt Q9BQ51 20-220, looked up)
chain: LFTVTVPKELYIIEHGSNVTLECNFDTGSHVNLGAITASLQKVENDTSPHRERATLLEEQLPLGKASFHIPQVQVRDEGQYQCIIIYGVAWDYKYLTLKVKASYRKINTHILKVPETDEVELTCQATGYPLAEVSWPNVSVPANTSHSRTPEGLYQVTSVLRLKPPPGRNFSCVFWNTHVRELTLASIDLQSQMEPRTHPT
modifications: biotinylated (site not stated)
notes: Bought reagent; also called shPD-L2; sPD-L2; not shown: murine Ig Fc

Kd [3]: 4 nM
PD-1 binding on CD4+ and CD8+ T cells (% bound, in vivo) [11]: ≥ 80%
B11: PD-1 mAb B IgG4 (P) (antibody, V domains shown)
VH: QVQLVQSGVEVKKPGASVKVSCKASGYTFTNYYMYWVRQAPGQGLEWMGGINPSNGGTNFNEKFKNRVTLTTDSSTTTAYMELKSLQFDDTAVYYCARRDYRFDMGFDYWGQGTTVTVSS
VL: EIVLTQSPATLSLSPGERATLSCRASKGVSTSGYSYLHWYQQKPGQAPRLLIYLASYLESGVPARFSGSGSGTDFTLTISSLEPEDFAVYYCQHSRDLPLTFGGGTKVEIK

binding result [16]: binds
Kd [13]: 9.8 nM
EC50 (read off the curve) [7]: ~0.4 nM
Kd [14]: 72.7 nM
B13: PD-1 mAb 9 (antibody, V domains shown)
VH: EVMLVESGGGLVKPGGSLKLSCAASGFTFSSYLVSWVRQTPEKRLEWVATISGGGGNTYYSDSVKGRFTISRDNAKNTLYLQISSLRSEDTALYYCARYGFDGAWFAYWGQGTLVTVSS
VL: DIQMTQSPASLSASVGDIVTITCRASENIYSYLAWYQQKQEKSPQLLVYNAKTLAAGVPSRFSGSGSGTQFSLTINSLQPEDFGNYYCQHHYAVPWTFGGGTRLEIT
notes: Murine monoclonal antibody
